The source of these data is PMC12191924, “A new naphthalene-based fluorogenic substrate for cytochrome P450 4A11” (Biochemical Journal, 2025).

The target of one series is T1, CYP1A2 (Homo sapiens, UniProt P05177).
T1 sequence (P05177 1-516): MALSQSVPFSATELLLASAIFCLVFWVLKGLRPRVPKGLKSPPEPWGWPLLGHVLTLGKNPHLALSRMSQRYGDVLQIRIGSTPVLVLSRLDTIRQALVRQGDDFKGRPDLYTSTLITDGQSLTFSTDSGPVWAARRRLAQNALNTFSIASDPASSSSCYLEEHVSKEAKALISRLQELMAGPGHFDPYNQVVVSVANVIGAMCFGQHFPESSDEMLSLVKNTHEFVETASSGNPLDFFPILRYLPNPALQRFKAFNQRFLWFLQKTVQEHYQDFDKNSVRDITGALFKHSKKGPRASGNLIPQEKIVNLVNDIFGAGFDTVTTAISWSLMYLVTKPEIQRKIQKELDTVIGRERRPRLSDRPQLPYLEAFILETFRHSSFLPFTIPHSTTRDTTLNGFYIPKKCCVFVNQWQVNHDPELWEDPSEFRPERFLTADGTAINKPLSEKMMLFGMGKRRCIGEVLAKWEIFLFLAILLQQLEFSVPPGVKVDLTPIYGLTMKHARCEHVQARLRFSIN
Format: biochemical. The text has this:
(§1) Thus, we decided to probe the derivatives of methoxynaphthalene as CYP4A11 substrates. The simplest potential methoxynaphthalene-based P450 substrate is 6-methoxy-2-naphthoic acid, a close analog of naproxen, which is known to be metabolized by P450 enzymes. […] This molecule is apparently too small to be a CYP4A11 substrate. Thus, we searched commercially available derivatives of methoxynaphthalene to find a compound with a longer carboxylic acid chain substituent in the naphthalene ring. This search identified MONACRA (Figure 1) as a potential CYP4A11 substrate. […] We attempted to design a fluorimetric assay of its metabolism suitable for high-throughput studies in HLM.

The target of a further series is T2, CYP4A11 (Homo sapiens, UniProt Q02928).
T2 sequence (Q02928 5-519): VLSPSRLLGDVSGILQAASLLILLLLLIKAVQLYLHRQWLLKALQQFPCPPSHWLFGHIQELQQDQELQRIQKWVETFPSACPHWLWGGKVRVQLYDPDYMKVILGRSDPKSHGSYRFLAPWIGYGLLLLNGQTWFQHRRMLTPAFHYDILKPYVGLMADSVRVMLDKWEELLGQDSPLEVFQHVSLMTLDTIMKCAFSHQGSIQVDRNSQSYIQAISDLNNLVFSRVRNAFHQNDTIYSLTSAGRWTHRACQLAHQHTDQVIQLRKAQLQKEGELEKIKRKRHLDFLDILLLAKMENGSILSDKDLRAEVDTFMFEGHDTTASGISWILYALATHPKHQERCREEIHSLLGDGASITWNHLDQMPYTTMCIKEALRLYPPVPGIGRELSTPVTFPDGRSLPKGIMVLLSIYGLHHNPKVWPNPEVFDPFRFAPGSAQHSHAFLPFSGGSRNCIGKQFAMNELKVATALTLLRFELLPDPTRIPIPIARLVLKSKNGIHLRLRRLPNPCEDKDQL
In words: Probing 6-methoxy-2-naphthoic acid as a P450 substrate (data not shown). Format: biochemical.
Excerpt: as §1

Substrate in series [1]: COc1ccc2cc(C=CC(=O)O)ccc2c1
The series can be described thus: MONACRA demethylation by recombinant CYP1A2 in Supersomes, high-throughput fluorimetric assay. The note with it: other: CYP1A2 Supersomes; substrate inhibition equation; ± = confidence interval P=0.05. It counts as biochemical, human. The method, then: (§2) Based on these observations, we developed a high-throughput automated assay applicable for studying SSPs of MONACRA metabolism by microsomal P450 enzymes. In this procedure, the incubation mixtures containing an NADPH-generating system and various substrate concentrations are placed in a multiwell plate and preincubated at 30°C in a thermostated shaker. The reaction is started by adding microsomal suspension to the final concentration of 0.3–1 mg/ml of microsomal protein or 0.02–0.1 µM of recombinant P450 enzymes in Supersomes. Following the incubation for 20 min at 30°C, the reaction is quenched by adding trichloroacetic acid (final concentration […]). After supplementing the wells with Na-glycine buffer (pH 10.4, final concentration 2.1 M), the plates are subjected to scanning the fluorescence spectra with excitation at 375 nm. This assay, which is described in detail in Materials and Methods, allows reliable detection of the concentrations of HONACRA as low as 0.1 µM.
(§3) We used the high-throughput activity assay described above to probe MONACRA metabolism by 16 human microsomal P450 enzymes, namely CYP1A2, CYP2A6, CYP2B6, CYP2C8, CYP2C9, CYP2C19, CYP2D6, CYP2E1, CYP2J2, CYP3A4, CYP3A5, CYP4A11, CYP4F2, CYP4F3A, CYP4F3B, and CYP4F12. […]

Substrate in series [2]: COc1ccc2cc(C=CC(=O)O)ccc2c1
The series can be described thus: MONACRA demethylation by recombinant CYP2C8 in Supersomes, high-throughput fluorimetric assay. Format: biochemical, human. Conditions: other: CYP2C8 Supersomes; Michaelis–Menten fit. The procedure: as §2, §3

`COc1ccc2cc(C(=O)O)ccc2c1` [6-methoxy-2-naphthoic acid]: on CYP1A2, the “O-demethylation by P450 enzymes” value is “undergoes O-demethylation catalyzed predominantly by CYP1A2”. For the same molecule, on CYP4A11, the “metabolism by CYP4A11” value is on record as “not metabolized by CYP4A11”.

B1: CYP1A2 (Homo sapiens) (protein)
chain: ALSQSVPFSATELLLASAIFCLVFWVLKGLRPRVPKGLKSPPEPWGWPLLGHVLTLGKNPHLALSRMSQRYGDVLQIRIGSTPVLVLSRLDTIRQALVRQGDDFKGRPDLYTSTLITDGQSLTFSTDSGPVWAARRRLAQNALNTFSIASDPASSSSCYLEEHVSKEAKALISRLQELMAGPGHFDPYNQVVVSVANVIGAMCFGQHFPESSDEMLSLVKNTHEFVETASSGNPLDFFPILRYLPNPALQRFKAFNQRFLWFLQKTVQEHYQDFDKNSVRDITGALFKHSKKGPRASGNLIPQEKIVNLVNDIFGAGFDTVTTAISWSLMYLVTKPEIQRKIQKELDTVIGRERRPRLSDRPQLPYLEAFILETFRHSSFLPFTIPHSTTRDTTLNGFYIPKKCCVFVNQWQVNHDPELWEDPSEFRPERFLTADGTAINKPLSEKMMLFGMGKRRCIGEVLAKWEIFLFLAILLQQLEFSVPPGVKVDLTPIYGLTMKHARCEHVQARLRFSIN
notes: purchased Gentest (Supersomes), now a part of Discovery Life Sciences; CYP1A2 is not in the lot list; host or cells: insect cells, recombinant baculovirus
As to B1, in series [1], the Km amounted to 161 ± 34 µM and the kcat is 0.733 ± 0.1 s⁻¹.

B2: CYP2C8 (Homo sapiens) (protein)
chain: MEPFVVLVLCLSFMLLFSLWRQSCRRRKLPPGPTPLPIIGNMLQIDVKDICKSFTNFSKVYGPVFTVYFGMNPIVVFHGYEAVKEALIDNGEEFSGRGNSPISQRITKGLGIISSNGKRWKEIRRFSLTTLRNFGMGKRSIEDRVQEEAHCLVEELRKTKASPCDPTFILGCAPCNVICSVVFQKRFDYKDQNFLTLMKRFNENFRILNSPWIQVCNNFPLLIDCFPGTHNKVLKNVALTRSYIREKVKEHQASLDVNNPRDFIDCFLIKMEQEKDNQKSEFNIENLVGTVADLFVAGTETTSTTLRYGLLLLLKHPEVTAKVQEEIDHVIGRHRSPCMQDRSHMPYTDAVVHEIQRYSDLVPTGVPHAVTTDTKFRNYLIPKGTTIMALLTSVLHDDKEFPNPNIFDPGHFLDKNGNFKKSDYFMPFSAGKRICAGEGLARMELFLFLTTILQNFNLKSVDDLKNLNTTAVTKGIVSLPPSYQICFIPV
notes: purchased Gentest (Huntsville, AL), now a part of Discovery Life Sciences lot 81760; host or cells: insect cells, recombinant baculovirus
With B2, in series [2], the Michaelis constant (Km) amounted to 456 ± 188 µM and the kcat is 0.0267 ± 0.0117 s⁻¹.

Usually Km stands for the substrate concentration at which the rate is half of its maximum. One may read the kcat as the number of substrate molecules converted per active site and unit of time at saturation.
